Assay [1] concerns the target human neurotensin type 1 receptor (human), P30989.
Assay [2] concerns the target T1, mouse neurotensin type 3 receptor (solubilized) (mouse), Q6PHU5.
T1 chain: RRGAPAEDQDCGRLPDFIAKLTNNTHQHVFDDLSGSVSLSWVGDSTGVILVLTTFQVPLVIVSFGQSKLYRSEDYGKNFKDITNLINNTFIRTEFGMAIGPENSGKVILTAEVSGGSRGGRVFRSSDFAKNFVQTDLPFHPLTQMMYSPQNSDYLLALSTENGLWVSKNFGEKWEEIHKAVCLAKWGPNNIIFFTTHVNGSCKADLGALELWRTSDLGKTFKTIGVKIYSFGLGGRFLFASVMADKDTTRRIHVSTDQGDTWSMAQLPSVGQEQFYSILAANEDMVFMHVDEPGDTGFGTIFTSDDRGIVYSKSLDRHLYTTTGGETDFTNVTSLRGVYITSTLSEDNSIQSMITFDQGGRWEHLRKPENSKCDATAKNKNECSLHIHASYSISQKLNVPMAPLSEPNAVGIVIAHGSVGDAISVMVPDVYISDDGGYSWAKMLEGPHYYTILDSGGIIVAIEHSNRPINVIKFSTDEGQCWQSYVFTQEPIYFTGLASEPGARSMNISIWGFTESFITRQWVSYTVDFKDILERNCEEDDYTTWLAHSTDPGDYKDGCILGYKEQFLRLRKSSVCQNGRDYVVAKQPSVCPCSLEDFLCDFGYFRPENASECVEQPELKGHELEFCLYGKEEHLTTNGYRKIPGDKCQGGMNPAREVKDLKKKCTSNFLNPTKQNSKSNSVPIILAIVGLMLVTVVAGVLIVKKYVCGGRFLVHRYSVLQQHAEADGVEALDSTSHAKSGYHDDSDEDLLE

The target of assay [3] is T2, rat neurotensin type 2 receptor (rat), Q63384.
T2 chain: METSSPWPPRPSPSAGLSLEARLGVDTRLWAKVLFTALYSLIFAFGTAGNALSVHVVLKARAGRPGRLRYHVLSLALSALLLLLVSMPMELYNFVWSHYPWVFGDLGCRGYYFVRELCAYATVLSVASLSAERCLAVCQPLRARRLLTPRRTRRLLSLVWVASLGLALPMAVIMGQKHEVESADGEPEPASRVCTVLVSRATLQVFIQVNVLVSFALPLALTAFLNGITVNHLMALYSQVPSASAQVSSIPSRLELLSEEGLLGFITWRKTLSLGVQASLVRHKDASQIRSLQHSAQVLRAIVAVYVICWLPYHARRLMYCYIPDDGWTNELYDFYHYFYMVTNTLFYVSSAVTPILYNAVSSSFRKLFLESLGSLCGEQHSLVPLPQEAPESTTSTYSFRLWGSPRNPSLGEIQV

In assay [4] the target is T3, rat neurotensin type 1 receptor (rat), P20789.
T3 chain: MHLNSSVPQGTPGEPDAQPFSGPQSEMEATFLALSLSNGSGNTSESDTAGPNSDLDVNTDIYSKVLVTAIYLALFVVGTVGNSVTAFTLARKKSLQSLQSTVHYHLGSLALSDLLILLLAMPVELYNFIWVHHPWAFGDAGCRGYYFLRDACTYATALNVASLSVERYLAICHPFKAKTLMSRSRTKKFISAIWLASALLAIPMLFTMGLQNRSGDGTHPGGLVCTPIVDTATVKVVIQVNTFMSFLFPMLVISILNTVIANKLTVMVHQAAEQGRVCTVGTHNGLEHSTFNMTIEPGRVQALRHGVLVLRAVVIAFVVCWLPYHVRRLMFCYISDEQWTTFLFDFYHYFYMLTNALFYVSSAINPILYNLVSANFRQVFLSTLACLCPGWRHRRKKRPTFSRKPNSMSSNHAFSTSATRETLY

Assay [5] addresses human neurotensin type 1 receptor (human), P30989. Nature of the assay: competition radioligand binding, reference neurotensin1-13.

human neurotensin type 1 receptor (human), P30989, sequence (P30989 whole entry): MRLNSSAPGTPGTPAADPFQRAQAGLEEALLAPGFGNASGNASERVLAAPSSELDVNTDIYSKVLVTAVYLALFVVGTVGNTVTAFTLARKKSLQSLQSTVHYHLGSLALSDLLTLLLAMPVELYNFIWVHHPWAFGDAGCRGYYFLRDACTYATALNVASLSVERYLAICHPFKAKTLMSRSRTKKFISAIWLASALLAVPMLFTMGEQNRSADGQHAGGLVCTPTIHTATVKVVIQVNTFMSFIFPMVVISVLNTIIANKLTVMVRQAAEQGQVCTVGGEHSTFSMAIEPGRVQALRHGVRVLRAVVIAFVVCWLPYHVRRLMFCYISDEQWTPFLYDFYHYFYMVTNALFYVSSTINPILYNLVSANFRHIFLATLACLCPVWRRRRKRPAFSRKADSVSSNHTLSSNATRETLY

As to QSEEGGSNATKKPYIL (modifications not checked) [non-glycosylated Thr10-contulakin-G], the half-inhibitory concentration (IC50) in assay [1] turned out to be 23 nM; in assay [2], 71 nM; in assay [3], 170 nM; in assay [4], 79 nM. Further, the fold lower affinity than Neurotensin1-13 in assay [5] came out at 10 fold.

Regarding QSEEGGSNATKKPYIL (modifications not checked) [contulakin-G (synthetic glycosylated 16-amino acid peptide, Gal(beta1->3)GalNAc(alpha1->) on Thr10)], the IC50 in assay [1] was found to be 960 nM; in assay [2], 250 nM; in assay [3], 730 nM; in assay [4], 524 nM.

A word on the IC50: it is the concentration needed to halve the response being measured. Read a low IC50 as inhibition by little substance.

(Values after patent publication US20040072758A1.)
